Results as given in article PMC5819829, “Cell-free synthesis of functional antibody fragments to provide a structural basis for antibody–antigen interaction” (PLoS ONE, 2018).

B1: 059-152-Fv (Fv fragment of the fully human anti-EGFR antibody 059-152) (other)
VH: QVQLQESGPGLVKPSETLSLTCTVSGGSISSSSYYWGWIRQPPGKGLEWIGSIYYSGSTYYNPSLKSRVTISVDTSKNQFSLKLSSVTAADTAVYYCARLPMVTMSFDYWGQGTLVTVSS
VL: SYVLTQPPSVSVAPGKTARITCGGNNIGSKSVHWYQQKPGQAPVLVIYYDSDRPSGIPERFSGSNSGNTATLTISRVEAGDEADYYCQVWDSSSDHVVFGGGTKLTVL
notes: also in PDB 5XWD; VL also in PDB 5XWD; Fv: VH and VL synthesised together as two separate chains; source: cell-free synthesis (E. coli S30 extract, dialysis mode, 0.2 mg/ml DsbC), purified (HisTrap, TEV cleavage, SEC); not shown: N11-tag, N-terminal, cleaved
B2: AzF-incorporated 059-152-Fv (other, human)
VH: B1 VH
VL: B1 VL
notes: also in PDB 5XWD; linker inserted just before the stop codon, followed by the amber codon that is read as AzF; Fv; AzF is the last residue of the VH chain, after the linker; also called AzF-incorporated Fv; not shown: N11-tag, N-terminal, cleaved
B3: Alexa-488 conjugated 059-152-Fv (other, human)
VH: B1 VH
VL: B1 VL
notes: also in PDB 5XWD; linker inserted just before the stop codon, followed by the amber codon that is read as AzF; Fv; m3 after copper-free click chemistry; also called Alexa-488 conjugated Fv; not shown: N11-tag, N-terminal, cleaved
B4: AzF-incorporated 059-152-Fab (Fab, V domains shown)
VH: B1 VH
VL: B1 VL
notes: also in PDB 5XWD; linker inserted just before the stop codon, followed by the amber codon that is read as AzF; AzF is the last residue of the VHCH1 chain, after the linker; also called AzF-incorporated Fab; not shown: N11-tag, N-terminal, cleaved
B5: 059-152-Fab (Fab fragment of the fully human anti-EGFR antibody 059-152) (Fab, V domains shown)
VH: B1 VH
VL: B1 VL
notes: also in PDB 5XWD; its VL part is in PDB 5XWD; source: cell-free synthesis (E. coli S30 extract, dialysis mode, 0.8 mg/ml DsbC), purified (HisTrap, TEV cleavage, SEC); not shown: N11-tag, N-terminal, cleaved
B6: Alexa-488 conjugated 059-152-Fab (Fab, V domains shown)
VH: B1 VH
VL: B1 VL
notes: also in PDB 5XWD; linker inserted just before the stop codon, followed by the amber codon that is read as AzF; m6 after copper-free click chemistry; also called Alexa-488 conjugated Fab; not shown: N11-tag, N-terminal, cleaved

The binders below were run against T1, EGFR-ECD (extracellular domain of human epidermal growth factor receptor, 1-643) (Homo sapiens, UniProt P00533, N-linked oligosaccharides cleaved by endoglycosidase H) (assay: SPR; BIAcore 3000; EGFR-ECD immobilised on a CM5 chip by amine coupling; single-cycle kinetics with 50.0, 16.6, 5.55, 1.85 and 0.617 nM Fv or Fab; 30 ul/min, 60-s association, 120-s dissociation; 25 C; HBS-EP+ buffer; triplicate). Conditions: both partners purified.
T1 construct: human epidermal growth factor receptor, extracellular domain, residues 1-643 as printed; A TEV site between the ECD and the His-tag is implied by the cleavage; also called extracellular domain of human EGFR; human EGFR-ECD; source: HEK293S GnTI- cells, transient overexpression, secreted; purified (HisTrap, TEV cleavage of the His-tag, endoglycosidase H, HiTrap Q, SEC); not shown: His-tag, …

Row | Kd [nM] | koff [s⁻¹] | kon [M⁻¹ s⁻¹] | Binder
1 | 5.9 ± 0.1 | 0.0147 | 2.49e+06 | B1
2 | 5.8 ± 0.2 | 0.0137 | 2.36e+06 | B2
3 | 6.1 ± 0.1 | 0.0154 | 2.52e+06 | B3
4 | 7 ± 0.1 | 0.0125 | 1.78e+06 | B4
5 | 7.7 ± 0.1 | 0.015 | 1.94e+06 | B5
6 | 8.1 ± 0.2 | 0.0133 | 1.67e+06 | B6
